Earlier results, collected in PMC11209772.
Several values for one entry are separate records, joined by “and”; a condition that tells them apart may be missing. Identical values can stand only once. Like-named read-outs stand apart in the source and are kept apart here.

Assays:
[1] = target: SSB (Escherichia coli) (UniProt P0AGE0)
[2] = target: SSB (Escherichia coli) (UniProt P0AGE0); test: FP
[3] = target: SSB-Ct peptide (Escherichia coli) (UniProt P0AGE0); test: FP
[4] = target: SSB (Escherichia coli) (UniProt P0AGE0); test: SPR
[5] = target: SSB C-terminal peptide C-terminal 15 residues (Escherichia coli) (UniProt P0AGE0); test: SPR
[6] = target: SSB-Ct peptide SSB-Ct (Escherichia coli) (UniProt P0AGE0); test: ITC
[7] = target: SSB (Escherichia coli) (UniProt P0AGE0); test: ITC
[8] = target: SSB-Ct peptide SSB-Ct (Escherichia coli) (UniProt P0AGE0)
[9] = target: SSB-Ct peptide SSB-Ct (Escherichia coli) (UniProt P0AGE0); test: FP

Substance: DNA polymerase III subunit chi (from UniProt P28905)
- Kd [1]: 0.33 µM

Substance: DNA polymerase IV (from UniProt Q47155)
- Kd [2]: 2 µM

Substance: ExoI (from UniProt P04995)
- Kd [3]: 0.136 µM

Substance: Pol III χψ (from UniProt P28905)
- Kd [4]: 2.7 µM

Substance: PriA (from UniProt P17888)
- Kd [5]: 2.4 µM

Substance: PriC (from UniProt P23862)
- Kd [6]: 0.67 µM and 3.7 µM

Substance: RNase HI (from UniProt P0A7Y4)
- Kd [7]: 2 µM

Substance: RadD (from UniProt P33919)
- Kd [8]: 5.4 µM
- Kd [3]: 5.4 µM

Substance: RarA (from UniProt P0AAZ4)
- Kd [4]: 0.36 µM

Substance: RecO (from UniProt P0A7H3)
- Kd [9]: 0.06 µM

Substance: RecQ (from UniProt P15043)
- Kd [7]: 6 µM

Substance: UDG (from UniProt P12295)
- Kd [4]: 0.17 µM
